The target in data set [1] is T1, ZBTB7A long fragment (Homo sapiens, UniProt O95365 341-505). Briefly: X-ray crystallography.
Data set [2] concerns the target T2, ZBTB7A ZF1-4 short fragment (Homo sapiens, UniProt O95365 370-500). Put plainly: X-ray crystallography.
In data set [3] the target is T2, ZBTB7A ZF1-4 short fragment. Put plainly: FP.
Data set [4] concerns the target T1, ZBTB7A long fragment. Briefly: FP.
Data set [5] has as its target T2, ZBTB7A ZF1-4 short fragment. Put plainly: X-ray crystallography. This is another data set of the same source.
Data set [6] shares this target. Briefly: X-ray crystallography. This is another data set of the same source.
For data set [7] the target is unchanged. Briefly: X-ray crystallography. This is another data set of the same source.

Read-outs that look alike come from different tables or passages of the source.

T2 sequence (O95365 370-500): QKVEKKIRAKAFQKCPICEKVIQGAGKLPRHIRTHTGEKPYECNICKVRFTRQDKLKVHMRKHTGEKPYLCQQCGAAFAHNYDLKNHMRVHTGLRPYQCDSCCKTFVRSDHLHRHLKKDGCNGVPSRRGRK
T1 sequence (O95365 341-505): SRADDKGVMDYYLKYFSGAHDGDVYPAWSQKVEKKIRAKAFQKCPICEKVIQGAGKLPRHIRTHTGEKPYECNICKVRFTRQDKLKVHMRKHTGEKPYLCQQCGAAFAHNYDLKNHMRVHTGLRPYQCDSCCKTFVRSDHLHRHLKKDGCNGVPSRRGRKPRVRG

B1: CAST crystal DNA 8E3E (dsDNA)
DNA 1: GGTAAAAGACCCCTCCCCAAA
DNA 2: CTTTGGGGAGGGGTCTTTTAC
Take B1: the binding result in the data set with ZBTB7A long fragment [1] is “binds”.

B2: GaCCC crystal DNA 7N5V (dsDNA)
DNA 1: GGGACCCTTGATGTTT
DNA 2: AAACATCAAGGGTCCC
Regarding B2, the binding result in data set [2] is recorded as “binds”.

B3: oligo #6 CAST 16 bp (dsDNA)
DNA 1: AAGACCCCTCCCCGAA
DNA 2: TTCGGGGAGGGGTCTT
The Kd is the equilibrium constant for the complex coming apart. A high value points to a looser complex. In the case of B3, the Kd (in data set [3]; with ZBTB7A long fragment [4]) was approximately 80 nM throughout.

B4: GaCCC crystal DNA 7N5U (dsDNA)
DNA 1: GGGACCCTTGATGTTT
DNA 2: CAAACATCAAGGGTCC
For the molecule B4, the binding result in data set [5] is reported as “binds”.

B5: GaCCC crystal DNA 7N5W (dsDNA)
DNA 1: GGGACCCTTCATGTTT
DNA 2: CAAACATGAAGGGTCC
Turning to B5, in data set [6], the binding result was “binds”.

B6: CAST crystal DNA 8E3D (dsDNA)
DNA 1: GGTAAAAGACCCCTCCCCAAAT
DNA 2: ATTTGGGGAGGGGTCTTTTACC
On to B6, for which the binding result in data set [7] is given as “binds”.

The record behind these values is PMC9932118.
